Test results: the nanobody polyreactivity screen of Harvey et al. (2022)

Assay: yeast display, Sf9 membrane polyspecificity reagent, FACS + sequencing; frameworks hold sequencing errors
Summary of the method: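 In a synthetic yeast display library (Saccharomyces cerevisiae BJ5465), nanobody expression was induced with galactose for 36–48 hours. FACS gates were set low and high (top ~1%) using anti-HA fluorescence for expression and streptavidin fluorescence for binding of the Sf9 membrane reagent. Each polyreactivity label is drawn from the gate of origin.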

Sequence	polyreactivity (PSR sort gate)
QVQLVESGGGVVQAGGSLRLSCAASGITFQYYDMGWFRPAPGKERELVAAISWSTDMTYADSVKGRFTISRDNAKNTDYLQMNSLKPEDTAVYYCAASTYEYTSYDYWGQGTQVTVSS	low polyreactivity
QVQLVESGGGVVQAGGSLRLSCAASGLIFSPYAMGWYRPAPGKERELVAVITRSGGRTYYADSVKGRFTISRDNAKNTVYLQMNSLKPEDTAVYYCAATPKSWSSSTRDYWGQGTQVTVSS	high polyreactivity
QVQLVESGGGVVQAGGSLRLSCAASGLTFKFYAMGWYIQAPGKERELVAAINRSGSSTYYADSVKGRFTISRDNAKNTVYLQMNSLKPEDTAVYYCAKDSFTSTRQYDYWGQGTQVTVSS	low polyreactivity
QVQLVESGGGVVQAGGSLRLSCAASGNIFFGNAMGWYRQAPGKERELVAAITKRGGSTYYADSVKGRFTISRDNAKNTVYLQMNSLKPEDTAVYYCAAVSYSKRTWSMNYWGQGTQVTVSS	high polyreactivity
QVQLVESGGGVVQAGGSLRLSCAASGRIFLKYTMGWYRQAPGKARELVAAISRGGSTYYADSVKGRFTISRDNAKNTVYLQMNSLKPEDTAVYYCAATSYRRTGYNYWGQGTQVTVSS	high polyreactivity
QVQLVESGGGVVQAGGSLRLSCAASGRIFRINGMGWYRQAPGKEREFVAAITSGGGTYYADSVKGRFTITRDNAKNTVYLQMNSLKPEDTAVYYCAAPSYRTRYYYWGQGTQVTVSS	high polyreactivity
QVQLVESGGGVVQAGGSLRLSCAASGRIIKSYAMGWYRQAPGKERDLVAAITRGGRTSYADSVKGRFTISRDNAKNTVYLQMNSLKPEDTAVYYCADDGGWRYHPFSSLFDYWGQGPQVTVSS	low polyreactivity
QVQLVESGGGVVQAGGSLRLSCAASGRIISYNAMGWYRQAPGKERELVAAISWGGGSTYYADSVKGRFTISRDNAKNTVYLQMNSLKPEDTAVSYCAKGWYRIKRNDYWGQGTQVTVSS	low polyreactivity
QVQLVESGGGVVQAGGSLRLSCAASGRNFGHYTMGWYRQAPGIERELVARISQSGGSTRYADSVKGRFTISRDNAKNTVYLQMNSLKPEDTAVYYWATYRRHFFYFAIPGYSSAYEYSGQGTQVTVSS	high polyreactivity
QVQLVESGGGVVQAGGSLRLSCAASGRTFPGNAMGWYRQAPGKERELVASITWSTGSTYYADSVKGRFTISRDNAKNTVYLQMNSLKPEDTAVYYCAADQSVRSYQYSVHRGYWGQGTQVTVSS	high polyreactivity
QVQLVESGGGVVQAGGSLRLSCAASGRTFPGYAMGWYRQAAGKERELVAAITRGSTNYADSVKGRFTISRDNAKNTVYKQMNSLKPEATAVYYCAADFQYYFFWEEDYWGHGTQVTVSS	low polyreactivity
QVQLVESGGGVVQAGGSLRLSCAASGRTFYRYAMGWYRQAPGKERELDAAISWRGGSTRYADSVKGRFTISRDNAKNTVYFQMNSLKPEDTAVYSCATRSTYWGWSSYGMDHWGQGTQVTVSS	high polyreactivity
QVQLVESGGGVVQAGGSLRLSCAASGSIFDGYARGWYRQAPGKERELVAAITRDGGSTHYADSVKGRFTISRDNAKNTVYLEMNSLKPEDTAVYYCASRDHAFRYYRNPFKGKYDYWGQGTQVTVSS	low polyreactivity
QVQLVESGGGVVQAGGSLRLSCAASGSIFISNAMGWYRQAPGTERELVAAITLTGTSTYYADSVKGRFTISRDNAKNTVYLQMNSLKPEDTAVYYCAAEYYYIVTYDFGYWGQGTQVTVSS	low polyreactivity
QVQLVESGGGVVQAGGSLRLSCAASGSIFSLYAMGWYRQAPGNERELVDAISSSGTSTYYADSVKGRFTISRDNAKNSVYLHMNSLKPEDTAVYYCNAYRRRATYNGDYWGQGTQVTVSS	high polyreactivity
QVQLVESGGGVVQAGGSLRLSCAASGSTFFYYAMGWYRQAPGKERELVATIRGSAGRTYYADSVKGRFTISRDHAKYTVYLQMNCLKPEDTAVYYCARRYWPGSAYWIYDYWGQGTQVTVSS	high polyreactivity

Sequence	polyreactivity (PSR sort gate)
QVQLVESGGGVVQAGGSLRLSCAASGSTFGYYAMGWYRQAPGKERELVAAISQGAGRTYFADSVKGRFTISRDIAKNTVYLQMNSLKPEDTAVYYCAGSVTVHRWAYGYCGQGTQVTVSS	high polyreactivity
QVQLVESGGGVVQAGGSLRLSCAASGSTFYANAMGWSRQAPGKERELVAAISSGGSTYYADSVKGRFTISRDNAKNTVYLQMNSLKPDDTAVYYCAKPFYSYRYGFGYWGQGTQVTVSS	low polyreactivity
QVQLVESGGGVVQAGGSLRLSCAASGSTFYPNAMGWYRQAPGKERELVAAISRGTRTKYADSVKGRFTISRDNAKNTVYLQMNSLKPEDTAVYYCAADTGTGLDWGQGTQVTVSS	high polyreactivity
QVQLVESGGGVVQAGGSLRLSCAATGSIFISYDTGLYRQAPGKESELVAAITWSGDSTYYADSVKARFTISRDNAKNSVYLQMNSLKPEDTAVYYCAADWYFRNQRGYYWGQGTQVTVSS	low polyreactivity
QVQLVESGGGVVQAGGSLRLSCAAYGFIYKQNAMGWYRQAPGKERELVATITRGGDTKYADSVKGRFTISRDNAKNTVYLLMNSLKPEDTAVEYCAARYTPSSSIYRFYNFYGYDYWGQGTQVIVSS	high polyreactivity
QVQLVESGGGVVQAGGSLRLSGAASGSTLLRNAMGWYRQAPGKAWELVAVITYSGGSTYYADSVKGRFTISRDQAKNTVYLQMNSLIPEDTAVYYCAADKWYYVRYATDAYSKFDYWGQGTQVTVSS	low polyreactivity
QVQLVESGGGVVQAGGSLRLSSAASGRIFQAYAMGWYRQAPGKEWELVAAISRSGGGTYYSDSVKGRFTISRDYAKNTVYLQMNSLKPEDTAVYYCNARGSTARGRGYWGQGTQVTVTS	high polyreactivity
QVQLVESGGGVVQAGRSLRLSCAASGSPFAYNSMGWYRKAPGKERELVAAISWRGTRTYYADSVKGRFTISRDTAKNTVNLQMNSLKPEDTAVYYCATKYGISYDYWGQGTHVTVSS	high polyreactivity
QVQLVESGGGVVQAGVTLRLSCAASGRIFHYNAMGWYRQAPGKEREMVAAFTWIGGSTYADSVKGRFTISRDNSKNSVYLLMNSLKPEDTAVYYFNARYIYRFDFWGQGTQVTVSS	low polyreactivity
QVQLVESGGGVVQARGSLRLSCAASGRIFDNAMGWYRQAPGKERELVAAISGGSTYYADSVKGRFTISRDNAKNTVYLQMHSLKPEDTAVYYCNTDPLGRTVVYGGDDYWGQGTQVTVSS	low polyreactivity
QVQLVESGGLLVKAGGSLRLSCAASGSIFYLYVMGWYRQAPGIERELVAANTWSGGSTYYADSVKGRFTISRDNAKNTVYLQMNILIPEDTAVYYCAARGYVPYVKYDYWGQGTQVTVSS	high polyreactivity
QVQLVESGGLLVQGGVSLRLSCAASGSTLYIYAMGWYRQAPGKERELVAANTWSGGRTFYADSVKGRFTISRDNAKNTVSLQMNSLTPEDTAVYYCAARILSDKTGSRYYYWGQGTQVTVSS	high polyreactivity
QVQLVESGGRIVQAGGSLRLSCAASGSILNNYAMGWYRQAPGKERELVAAISSSGGTNYADSVKGRFTISRDNEKNTVFLQMNSLKPEDTAVYYCNADVLDGGYDYWGQGTQVTVSS	low polyreactivity
QVQLVESGGRLLQAGGSLRLSCAASGSIFVGYAMGWYRQAPGKEWELVAAISASGGRTYYADSVKGRFTISRDNAKTTVYLQMNSLKPEDTAVYYCATDDYWGRGTQVTVSS	high polyreactivity
QVQLVESGGRLRQAGGSLRLSCAASGSTFVSYAMGWYRQAPGKERELVAAISTSGGRSYYADSVKGRFTISRDNAKNTVYLQMNSLKREDTAVYYCAAEHYQRWWPYWYWPYYWGQGTQVTVSS	high polyreactivity
QVQLVESGGRLVHAGGSLRLSCAASGFTFSDYAMGGYRQEPGKERELVAAISTRGSSTYYADSVKGLFTISRDNEKTTVYLEMNSLKPEDTAVYYCNAVGSYSGYYYWGQGNQVTVSS	high polyreactivity
